From PMC4369733, “Design of a PDZbody, a bivalent binder of the E6 protein from human papillomavirus” (Scientific Reports, 2015) come the findings set out here.

Broadly, the Kd is the equilibrium constant for the complex coming apart. Low values mean higher affinity, high ones lower affinity. By kon is commonly meant a measure of how fast the partners come together. A lower kon goes with slower complex formation. In general, koff refers to the first-order rate constant of dissociation. In general, stoichiometry N refers to the number of molecules, sites or subunits per partner or assembly.

Experiment [1] concerns the target Lipo-E6_(18)-C: C-terminal domain of HPV18 E6 (residues 82-158) linked via the N-terminus to His-tagged lipoyl domain (HPV18) (UniProt P06463). Nature of the experiment: stopped-flow fluorescence kinetics; association: PDZ variant (6-20 µM) mixed with Lipo-E6_(18)-C (2 µM), Trp342 emission; 10°C, 50 mM potassium phosphate pH 7.5, 240 µM β-mercaptoethanol; kon from kobs versus PDZ concentration; Kd = koff/kon.

For experiment [2] the target is unchanged. The experiment can be described thus: stopped-flow fluorescence kinetics; displacement: pre-formed complex of PDZ variant (0.75 µM) and Lipo-E6_(18)-C (0.75 µM) mixed with dansylated peptide (20, 150 and 300 µM); 10°C, 50 mM potassium phosphate pH 7.5, 240 µM β-mercaptoethanol; koff = kobs at high peptide.
Experiment [3] deals with pseudo wild type SAP97 PDZ2 (residues 311-407; I342W, C378A) (human) (UniProt Q12959). Nature of the experiment: ITC; full-length HPV16 E6 titrated into the PDZ variant or PDZbody; ITC200, 25°C, 20 mM sodium phosphate pH 6.8, 200 mM NaCl, 1 mM TCEP; single-site model.
The target of experiment [4] is PDZbody15 (E6AP helix, Gly-Ser linker of 10 residues, PDZϕ9) (UniProt Q12959). The description is as above.
The target in experiment [5] is PDZbody8 (E6AP helix, Gly-Ser linker of 3 residues, PDZϕ9) (UniProt Q12959). Described as above.
Experiment [6] concerns the target PDZϕ9 (SAP97 PDZ2 pseudo wild type with L391F, K392M) (human) (UniProt Q12959). The description is as above.
Experiment [7] deals with PDZbody20 (E6AP helix, Gly-Ser linker of 15 residues, PDZϕ9) (UniProt Q12959). Described as above.
The target of experiment [8] is PDZbody25 (E6AP helix, Gly-Ser linker of 20 residues, PDZϕ9) (UniProt Q12959). Described as above.
Experiment [9] deals with T1, pseudo wild type SAP97 PDZ2 (residues 311-407; I342W, C378A) (human, UniProt Q12959 311-407, I342W | C378A).
T1 construct: SAP97 (also called human Dlg), second PDZ domain (PDZ2), residues 311-407; Residues of the thrombin site probably stay at the N-terminus after cleavage (surmised); also called pWT; source: E. coli BL21(DE3) pLysS, purified (nickel-Sepharose, thrombin digestion, nickel reload, Source 30Q); not shown: His tag, N-terminal, cleaved; lipoyl protein domain (Bacillus stearothermophilus), N-terminal, …
T1 sequence (looked up): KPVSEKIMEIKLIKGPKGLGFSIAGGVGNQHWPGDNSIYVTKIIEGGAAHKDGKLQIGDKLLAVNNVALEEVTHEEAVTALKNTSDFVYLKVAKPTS
The experiment can be described thus: stopped-flow fluorescence kinetics; displacement: pre-formed complex of PDZ variant (0.75 µM) and Lipo-E6_(18)-C (0.75 µM) mixed with dansylated peptide (20, 150 and 300 µM); 10°C, 50 mM potassium phosphate pH 7.5, 240 µM β-mercaptoethanol; koff = kobs at high peptide. As to conditions: both partners purified.

Experiment [10] addresses T1, pseudo wild type SAP97 PDZ2 (residues …). The experiment can be described thus: stopped-flow fluorescence kinetics; association: PDZ variant (6-20 µM) mixed with Lipo-E6_(18)-C (2 µM), Trp342 emission; 10°C, 50 mM potassium phosphate pH 7.5, 240 µM β-mercaptoethanol; kon from kobs versus PDZ concentration; Kd = koff/kon. The conditions noted are these: both partners purified.

In [1], “PDZϕ1 (SAP97 PDZ2 pseudo wild type with E385R) (from UniProt Q12959 311-407) (designed binder)” yielded a Kd of 920 nM and an association rate constant (kon) of 8.2e+06 M⁻¹ s⁻¹. In addition, the koff in experiment [2] stood at 7.5 s⁻¹.

In experiment [1], “PDZϕ2 (SAP97 PDZ2 pseudo wild type with E385H, L391F, K392Q) (from UniProt Q12959 311-407) (designed binder)” showed a Kd of 260 nM and a kon of 5.9e+06 M⁻¹ s⁻¹. In experiment [2], the koff was 1.5 s⁻¹.

In [1], “PDZϕ3 (SAP97 PDZ2 pseudo wild type with L391F, K392A) (from UniProt Q12959 311-407) (designed binder)” returned a Kd of 160 nM and a kon of 4.6e+06 M⁻¹ s⁻¹. In experiment [2], the koff is 0.75 s⁻¹.

In experiment [1], “PDZϕ4 (SAP97 PDZ2 pseudo wild type with E385H, K392R) (from UniProt Q12959 311-407) (designed binder)” had a Kd of 600 nM and a kon of 8.5e+06 M⁻¹ s⁻¹. The molecule also came in with a koff in [2] of 5.1 s⁻¹.

In experiment [1], “PDZϕ5 (SAP97 PDZ2 pseudo wild type with E385H, K392T) (from UniProt Q12959 311-407) (designed binder)” showed a Kd of 780 nM and a kon of 4.9e+06 M⁻¹ s⁻¹. For the same molecule, the off-rate constant (koff) in [2] turned out to be 3.8 s⁻¹.

For the molecule “PDZϕ6 (SAP97 PDZ2 pseudo wild type with E385K, K392Q) (from UniProt Q12959 311-407) (designed binder)”, in experiment [1], the equilibrium dissociation constant (Kd) is 2500 nM and the kon stood at 4e+06 M⁻¹ s⁻¹. Further, the koff in [2] turned out to be 10.2 s⁻¹.

For the molecule “PDZϕ7 (SAP97 PDZ2 pseudo wild type with E385K, K392R) (from UniProt Q12959 311-407) (designed binder)”, in [1], the Kd amounted to 610 nM and the kon worked out at 8.9e+06 M⁻¹ s⁻¹. In addition, the off-rate (koff) in experiment [2] was 5.5 s⁻¹.

Regarding “PDZϕ8 (SAP97 PDZ2 pseudo wild type with E385T) (from UniProt Q12959 311-407) (designed binder)”, in experiment [1], the Kd was 660 nM and the kon is 5.8e+06 M⁻¹ s⁻¹. The same molecule came in with a koff in [2] of 3.8 s⁻¹.

Take “PDZϕ9 (SAP97 PDZ2 pseudo wild type with L391F, K392M) (from UniProt Q12959 311-407) (designed binder)”: in experiment [1], the Kd came out at 93 nM and the kon is 5.9e+06 M⁻¹ s⁻¹. The same molecule returned a koff in experiment [2] of 0.55 s⁻¹.

As to “full-length HPV16 E6 (from UniProt P03126 1-158) (natural protein)”, the equilibrium dissociation constant (Kd) in [3] worked out at 6300 nM; in experiment [4], 160 nM; in experiment [5] it was 200 nM; in [6], 910 nM; in [7] it was 65 nM; in experiment [8] it was 79 nM. In addition, the dH in [3] was -4.6 kcal/mol; in experiment [4], -16.5 kcal/mol; in experiment [5], -19.1 kcal/mol; in experiment [6], -9.9 kcal/mol; in experiment [7], -17 kcal/mol; in experiment [8] it was -19.8 kcal/mol. Also, the stoichiometry N in [3] was 0.75; in experiment [4] it was 0.93; in experiment [5] it was 0.76; in experiment [6], 0.75; in [7], 0.94; in experiment [8] it was 0.92.

B1: Lipo-E6_(18)-C: C-terminal domain of HPV18 E6 (residues 82-158) linked via the N-terminus to His-tagged lipoyl domain (domain or fragment)
chain: SDSVYGDTLEKLTNTGLYNLLIRCLRCQKPLNPAEKLRHLNEKRRFHNIAGHYRGQCHSCCNRARQERLQRRRETQV
notes: HPV18 E6 C-terminal domain, residues 82-158, UniProtKB P06463; A thrombin cleavage site (LVPRGS) stands between the lipoyl domain and the E6 domain and was not cut; also called HPV18 E6 C-terminal domain; source: E. coli BL21(DE3) pLysS, purified (nickel-Sepharose, Source 30Q; thrombin digestion omitted); not shown: His tag, N-terminal, kept; lipoyl protein domain (Bacillus stearothermophilus), …
B1 gave a koff in [9] of 3.3 s⁻¹. In [10], binding was characterised by a dissociation constant (Kd) of 540 nM and the kon turned out to be 6.2e+06 M⁻¹ s⁻¹.
